According to patent US20100322948A1, “Bone morphogenetic protein (BMP)-binding domains of proteins of the repulsive guidance molecule (RGM) protein family and functional fragments thereof, and use of same” (ABBOTT GMBH & CO. KG, priority 2007, published 2010):
“Also recorded” adds a separate entry of the source.

How the values were obtained:
BMP-2 = target: T1, BMP-2 (Homo sapiens, UniProt P12643); assay: In vitro interaction test, variant B: immobilized RGMA-Fc fusion proteins, detection of BMP-2 binding; settings: Working Example 2, FIG. 4, anti-BMP-2 biotin antibodies
T1 construct: purchased R&D Systems 355-BM; host or cells: CHO cells (said of #355-BM in the BRE-Luc section)
T1 sequence (P12643 283-396): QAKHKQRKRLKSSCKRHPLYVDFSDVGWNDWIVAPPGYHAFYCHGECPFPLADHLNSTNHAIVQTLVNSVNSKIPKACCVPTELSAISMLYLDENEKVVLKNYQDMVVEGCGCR
Experimental: Test Method 4: In Vitro Interaction Test for Determining the Interaction between RGMA and BMP-2 and -4
The interaction tests were carried out as described below:
Variant B: Immobilization of Various RGMA-Fc Fusion Proteins and Detection of the Binding of the BMP-2/ or -4 Protein
Immunoplate Cert. MaxiSorp F96 (Nunc, 439454)
RGMA-Fc fragments • Volume used: 2.5 μg/mL in Na2CO3; addition: 50 μL per well • 1 hour at 37° C. in damp chamber
3. Washing step: • Wash 3× with PBS/0.02% Tween 20
4. Blocking: • 3% BSA in PBS/0.02% Tween, 1 hour at 37° C. in damp chamber • Addition : 200 μL per well, incubation: 1 hour at 37° C. in damp chamber
Recombinant human BMP-2, Catalog No.: 355-BM, Company: R&D Systems; or
Recombinant human RGM A, R&D Systems; Prod. #2495-RM,
recombinant human BMP-4, Catalog No.: 314-BM, Company: R&D Systems;
Concentration in each case: 10 μg/mL
Dilution steps: in each case 1:2 with PBS/0.02% Tween 20
6. Washing step: • Wash 3× with PBS/0.02% Tween 20
Anti-human BMP-4 biotin antibody; Catalog No.: BAM7572, 1:200 in 1% BSA-PBS-T
8. Washing step: • Wash 3× with PBS/0.02% Tween 20
10. Washing step: • Wash 3× with PBS/0.02% Tween 20 […]
The test was conducted according to test method 4, variant B above, with immobilization of the fusion proteins (1 mg/mL). The binding of BMP-4 and -2 was detected using anti-BMP-4 and anti-BMP-2 biotin antibodies, respectively.

SH-SY5Y cells = assay: Neurite growth assay using SH-SY5Y cells (test method 1); format: cell-based, human; settings: FIG. 7A
Description: Test Method 1: Illustration of the Effect of RGM Peptides in the Neurite Growth Assay, Using SH-SY5Y Cells
SH-SY5Y cells are human neuroblastoma cells. Blastomas are embryonic tumors which originate during tissue and organ formation. The origin of the blastoma cells is frequently unknown, since in early embryonic states the differentiation of many cells is still premature; i.e., the blastoma cells are a heterogeneous cell population. The cells of a neuroblastoma, referred to as neuroblasts, originate from the neural crest (structure of the embryonic state) from the autonomous nerve tissue, and are practically arrested in an immature stage. The cells in the present case originated from a clonal subculture of the neuroepitheliomal cell line SK-N-SH which were isolated in 1970 in a bone marrow biopsy of a child with metastases of the neuroblastomas.
Culture Medium for SH-SY5Y Cells (ECACC No. 94030304)
The medium was sterile-filtered using a Nunc 500-mL filter, and was stored in a refrigerator at 4° C. until used. Before use, the medium was heated to 37° C. in a water bath.
SH-SY5Y cells are epithelial, neuron-like cells which slowly adherently grow in a monolayer and never attain a confluence of 100% (maximum 80%). The cell culture was split 1:3 two times per week. Isolation of the cells requires incubation with trypsin for 1-3 minutes in an incubator.
Since this is a population of still immature precursor cells, it is possible to differentiate the cells using retinoic acid, so that a certain percentage of the cells acquire neurite-like extensions. For this purpose the culture was incubated in the medium with 10 μM retinoic acid directly in the culture dish or flask, depending on the test, for 3 days.
Microtiter plates (96-well) (containing collagen I-coated plates) were additionally coated with the hRGM A fragments. After washing two times with PBS the cells were seeded. […] In the quantitative analysis the SH-SY5Y cells grown on hRGM A fragments were compared to SH-SY5Y grown on collagen I alone. The neurite length of the cells was automatically measured and used for the analysis. […]

[1] = tested on: BMP signalling (rhBMP-2-induced luciferase activity); assay: BRE-Luc assay on BMP signalling in BMP-responsive C3H10-B12 cells; format: cell-based
Experimental: Evaluation of the Agonistic or Antagonistic Effect of h RMG A on BMP Signalling using BRE-Luc Assay
a) Materials: • Three compounds were provided at 200 μg/ml.
fragment #788 (IgK/hRGM A 47-422/Xa cleavage site/Fc) • recombinant h BMP-2 (from CHO cells; #355-BM) and monoclonal anti-human BMP2/4 antibodies (#MAB3552) were obtained from R&D Systems Europe, Lille, France • Bright-Glo Luciferase assay kit were purchased from Promega
All experiments were performed in triplicate, and were repeated at two separate times.

B1: fragment #786: Fc fusion protein of human RGM A amino acids 47-168 (protein)
chain: PCKILKCNSEFWSATSGSHAPASDDTPEFCAALRSYALCTRRTARTCRGDLAYHSAVHGIEDLMSQHNCSKDGPTSQPRLRTLPPAGDSQERSDSPEICHYEKSFHKHSATPNYTHCGLFGD
modifications: left off: small tags and cut ends; a dimerising Fc or GST
binding of BMP-2 (BMP-2): more significant binding | inhibition of neurite growth (SH-SY5Y cells): inhibit the neurite growth | inhibitory activity in neurite growth test compared with 316-386-Fc (SH-SY5Y cells; listed as 47-168-Fc): much stronger effect; also recorded: significantly higher activity | effect on BMP-2-induced luciferase activity ([1]; combined with rhBMP-2 at 50 ng/ml, 24 h, listed as #786): dose-dependent inhibition; also recorded: inhibited the rhBMP-2-induced activity in a dose dependent fashion | inhibition of the rhBMP-2-induced activity ([1]; compounds at 10 μg/ml, rhBMP-2 at 50 ng/ml): 88% | equivalent dose for 50% of inhibition (ED50) ([1]; rhBMP-2 at 50 ng/ml): 0.1 µg/mL
